Data as given in PMC5655542 (2017).

T1: H. polygyrus Alarmin Release Inhibitor (HpARI), recombinant mature 6-His and Myc-tagged protein (Heligmosomoides polygyrus)
T1 chain: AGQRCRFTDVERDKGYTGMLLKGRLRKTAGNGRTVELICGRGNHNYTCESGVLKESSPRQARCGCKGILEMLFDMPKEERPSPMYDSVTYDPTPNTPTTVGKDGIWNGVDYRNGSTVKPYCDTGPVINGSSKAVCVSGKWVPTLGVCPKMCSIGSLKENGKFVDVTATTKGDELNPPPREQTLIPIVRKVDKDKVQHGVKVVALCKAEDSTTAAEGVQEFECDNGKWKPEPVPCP

B1: recombinant human IL-33, untreated (reduced, active form) (ligand)
chain: MKPKMKYSTNKISTAKWKNTASKALCFKLGKSQQKAKEVCPMYFMKLRSGLMIKKEACYFRRETTKRPSLKTGRKHKRHLVLAACQQQSTVECFAFGISGVQKYTRALHDSSITGISPITEYLASLSTYNDQSITFALEDESYEIYVEDLKKDEKKDKVLLSYYESQHPSNESGDGVDGKMLMVTLSPTKDFWLHANNKEHSVELHKCEKPLPDQAFFVLHNMHSNCVSFECKTDPGVFIGVKDNHLALIKVDSSENLCTENILFKLSET
B2: recombinant murine IL-33, untreated (reduced, active form) (ligand)
chain: SIQGTSLLTQSPASLSTYNDQSVSFVLENGCYVINVDDSGKDQEQDQVLLRYYESPCPASQSGDGVDGKKLMVNMSPIKDTDIWLHANDKDYSVELQRGDVSPPEQAFFVLHKKSSDFVSFECKNLPGTYIGVKDNQLALVEEKDESCNNIMFKLSKI
modifications: reduced (free cysteines, no disulfides), active form; limits not given, taken as the usual commercial mature mouse IL-33 (Ser109-Ile266, UniProt chain 109-266)

Biological target: T1, H. polygyrus Alarmin Release Inhibitor …
Test: SPR; 25°C

Binder | koff
B1 | 0.004 s⁻¹
B2 | 0.00014 s⁻¹
